According to the DeepSol protein solubility set:

Assay: soluble on expression in E. coli; label from the status in PepcDB or PDB records
With “MALLWQLARNAEGDDPTNLESALIGKPVPKFRLESLDNPGQFYQADVLTQGKPVLLNVWATWCPTCRAEHQYLNQLSAQGIRVVGMNYKDDRQKAISWLKELGNPYALSLFDGDGMLGLDLGVYGAPETFLIDGNGIIRYRHAGDLNPRVWEEEIKPLWEKYSKEAAQ” the “soluble on expression in E. coli” value was “soluble”.
With “MSFLISFDKSKKHPAHLQLANNLKIALALEYASKNLKPEVDNDNAAMELRNTKEPFLLFDANAILRYVMDDFEGQTSDKYQFALASLQNLLYHKELPQQHVEVLTNKAIENYLVELKEPLTTTDLILFANVYALNSSLVHSKFPELPSKVHNAVALAKKHVPRDSSSFKNIGAVKIQADLTVKPKDSEILPKPNERNILITSALPYVNNVPHLGNIIGSVLSADIFARYCKGRNYNALFICGTDEYGTATETKALEEGVTPRQLCDKYHKIHSDVYKWFQIGFDYFGRTTTDKQTEIAQHIFTKLNSNGYLEEQSMKQLYCPVHNSYLADRYVEGECPKCHYDDARGDQCDKCGALLDPFELINPRCKLDDASPEPKYSDHIFLSLDKLESQISEWVEKASEEGNWSKNSKTITQSWLKDGLKPRCITRDLVWGTPVPLEKYKDKVLYVWFDATIGYVSITSNYTKEWKQWWNNPEHVSLYQFMGKDNVPFHTVVFPGSQLGTEENWTMLHHLNTTEYLQYENGKFSKSRGVGVFGNNAQDSGISPSVWRYYLASVRPESSDSHFSWDDFVARNNSELLANLGNFVNRLIKFVNAKYNGVVPKFDPKKVSNYDGLVKDINEILSNYVKEMELGHERRGLEIAMSLSARGNQFLQENKLDNTLFSQSPEKSDAVVAVGLNIIYAVSSIITPYMPEIGEKINKMLNAPALKIDDRFHLAILEGHNINKAEYLFQRIDEKKIDEWRAKYGGQQV” the “soluble on expression in E. coli” value was “not soluble”.
For “MTLTSDDLRQIAALTLAHYDDNAVSFEVGTRDHDVSQNIAALLRHIQGDPPYAILDFGCGPGRDLKTFAALGHAAVGLDGAAHFVAMAHQATGCEVWQQDFLRLALPAGRFDGIFANASLFHVPTQELPRVLGELRDTLKPGGVLFCSNPRGGNEEGWSRGRYGVWHDWESWRALLEAAGFQALEHYYRPAGLPREQQQWLASVWRRLEHHHHHH”, the “soluble on expression in E. coli” value was “soluble”.
For “GPGSMSDSTTEKIFLLYATFSEIHRELLMEHHKTHPEHKTYMDILNYLREEEGVKQSLLKKNSNWEILQQKKLTAIENVAISVKREIPGGFSNSAIVRNALPHAVVLSGFSTSSQTNENWVRLHMQLLDEQTKLVREYNDKRFLNASVKRMIVLCHEHGCDGVAGRLKREFGVSDKMHCWSMLDAYTTMSQWGLIDQLGDVKNKNKPVIGASAFINTLLACGRQEQAKQYIHKIPQIEQRMEYYLLCSDWEGAGADCRRHGEPDLLTQLKDRVKGDASAVQLIDKGWNSVQESGAVKLAKLFA”, the “soluble on expression in E. coli” value was “not soluble”.
In the case of “MAQASPPRPERVLGASSPEARPAQEALLLPTGVFQVAEKMEKRTCALCPKDVEYNVLYFAQSENIAAHENCLLYSSGLVECEDQDPLNPDRSFDVESVKKEIQRGRKLKCKFCHKRGATVGCDLKNCNKNYHFFCAKKDDAVPQSDGVRGIYKLLCQQHAQFPIIAQSAKFSGVKRKRGRKKPLSGNHVQPPETMKCNTFIRQVKEEHGRHTDATVKVPFLKKCKEAGLLNYLLEEILDKVHSIPEKLMDETTSESDYEEIGSALFDCRLFEDTFVNFQAAIEKKIHASQQRWQQLKEEIELLQDLKQTLCSFQENRDLMSSSTSISSLSY”, the “soluble on expression in E. coli” value is reported as “not soluble”.
In the case of “MMKEMTVQQMTEKVLNKESLFILDVRNESDFRDWKIEGENFAYLNVPYFELVHGVDSIVDRLPKDQDIVVVCAKGGSAAFVAEQLAEAGFDNVYTLAGGMQAWSEHLHQAKVYEDDQLKIYQFIRVGKGCLSYMVLSGDEALVVDPLRFIDVYEQVAQQEGVTITHIVDSHLHADHLSGGKALAERTGAAYYLMKSEGAVFDFEPLEQHETIDFENVHLEVLAVKTPGHTPGSVSFFVNGKWLFSGDTIFVGGLGRPDLGGKVAEWAEDLYHTVYEKVAAMADDVIVLPAHYANLDEEINAEGYVGDTLGRIRARNEMMQNKAKDEFIDLVIQGAKTETPPNFEDIVAINRGLKTVDIETQRELEIGPLEHHHHHH”, the “soluble on expression in E. coli” value is reported as “soluble”.
With “MGSDKIHHHHHHAADGEGRGELSPKIKAGDLESKLIVPKNNGLKITGTFLDEISHDIPHQNWGEKEWDLDFQHMKRIGIDTVIMIRSGYRKFMTYPSPYLLKKGCYMPSVDLVDMYLRLAEKYNMKFYFGLYDSGRYWDTGDLSWEIEDNKYVIDEVWKMYGEKYKSFGGWYISGEISRATKGAIDAFRAMGKQCKDISNGLPTFISPWIDGKKAIMGTGKLTREDAVSVQQHEKEWNEIFDGIHEVVDACAFQDGHIDYDELDAFFTVNKKLADKYGMQCWTNAESFDRDMPIRFLPIKFDKLRMKLEAAKRAGYDKAITFEFSHFMSPQSAYLQAGHLYDRYREYFEIK” the “soluble on expression in E. coli” value was “not soluble”.
With “MNREEMTLLGFEIVAYAGDARSKLLEALKAAENGDFAKADSLVVEAGSCIAEAHSSQTGMLAREASGEELPYSVTMMHGQLHLMTTILLKDVIHHLIELYKRGAK” the “soluble on expression in E. coli” value was “soluble”.
For “MGSDKIHHHHHHMTTESIAVLVIDDDPAILQNIVCYLEDSDFICFGAADGAAGIETFERERPDAVIVDLNMPGMNGRDVIARINAQSPTTPVIVVSGTGVIDEAVESMRVGAWDFLSKPVRRMEELENAVRAGLRRARTMRESNEYKETLERMVKRRTRELQLANDRTEAILLATVQSLSTVINLKDAYTGTHQQRVALIAPAIAEELGMEQRAVEAVRLAALLHDVGKMGLPSEFLTKPSRLDANEMQFIRQHPQLGYDILKDIPFELPIPEMVLQHHERLDGSGYPRGLAGDDILPEARILAVADTVEAICSHRPWRPAHPFSHALHELTAGKNTLYCPDAVNSCIDLITRGDPRLTTFTATIKGLPS”, the “soluble on expression in E. coli” value was “not soluble”.
For “MGEAAKDQTEEVIQAWYLDNKEEDQKLPHHKDPKEFVSLDKLAELGVLCWRLDADNYETDEELKRIRESRGYSYMDLCEVCPEKLPNYEEKVKMFFEEHLHIDEEIRYCLAGSGYFDVRDLNDIWIRVWVKKGGLIVFPAGIYHRFTVDSDNYMKAMRLFVGGPVWTAYNRPHDHLPARKAYMKKFLKVIGDRNIDASA”, the “soluble on expression in E. coli” value was “soluble”.
In the case of “MGSDKIHHHHHHLQVSEMEMLITLSEELNMRRAAERLFVSQPALSQRLVAIERRWATKLFIRSSRGLSITPQGEKVIGLAKEMNRKELELKSELTAEEGAVYGTLRIAVASIMGQYWLPRVLKRFVERYPHVRVQLVTGWSSEMMRHMLEEHFHIGIIRGNPDWKGVKERLFSDPLYLVDSELTSLEQLRKTERPFIQFKSDSTYYQEILEWWQDRFSSPPARTLVVDQIETCKQMALHGIGFAILPESTIHEASEVMQIPLKTSSGKILKRDTWILSTESMLELKQVQAFWDIVKEEGGSQSDGIRN”, the “soluble on expression in E. coli” value is reported as “not soluble”.
In the case of “SRRRRSGTEPEKIEPGEGASRSRRDMLKDGGQQGLGTGARDPDKATRFRMEELRLTSTTFALTGDSAHNQAMVHWSGHNSSVILILTKLYDYNLGSITESSLWRSTDYGTTYEKLNDKVGLKTILSYLYVCPTNKRKIMLLTDPEIESSLLISSDEGATYQKYRLNFYIQSLLFHPKQEDWILAYSQDQKLYSSAEFGRRWQLIQESVVPNRFYWSVMGSSKEPDLVHLEARTVDGHSIYLTCRMQNCTEANRNKPFPGYIDPDSLIVQDDYVFVQLTSGGRPHYYVSYRRSPFAQMKLPKYALPKDMHVISTDENQVFAAVQEWNQNDTYNLYISDTRGVYFTLALENVQSSRGPEGNVMIDLYEVAGIKGMFLANKKIDNQVKTFITYNKGRDWRLLQAPDADLRGDPVHCLLPYCSLHLHLKVSENPYTSGIIASRDTAPSIIVASGNIGSELSDSDISMFVSSDAGNTWRQIFEEEHSILYLDQGGVLVAMKHTSLPIRHLWLSFDEGRSWSKYSFTSIPLFVDGVLGEPGEETLIMTVFGHFSHRSEWQLVKVDYKSIFDRRCAEEDYRPWQLHSQGEACIMGAKRIYKKRKSERKCMQGKYAGAMESEPCVCTEADFDCDYGYERHSNGQCLPAFWFNPSSLSKDCSLGQSYLNSTGYRKVVSNNCTDGVREQYTAKPQKCP”, the “soluble on expression in E. coli” value is reported as “soluble”.
With “MSLYIQNLELTSYRNYDHAELQFENKVNVIIGENAQGKTNLMEAIYVLSMAKSHRTSNDKELIRWDKDYAKIEGRVMKQNGAIPMQLVISKKGKKGKVNHIEQQKLSQYVGALNTIMFAPEDLNLVKGSPQVRRRFLDMEIGQVSPVYLHDLSLYQKILSQRNHFLKQLQTRKQTDRTMLDVLTDQLVEVAAKVVVKRLQFTAQLEKWAQPIHAGISRGLEELTLKYHTALDVSDPLDLSKIGDSYQEAFSKLREKEIERGVTLSGPHRDDVLFYVNGRDVQTYGSQGQQRTTALSLKLAEIDLIHEEIGEYPILLLDDVLSELDDYRQSHLLHTIQGRVQTFVTTTSVDGIDHETLRQAGMFRVQNGALVKEGGSHHHHHH” the “soluble on expression in E. coli” value was “soluble”.
For “MKLLALVALCAVGVASHRDKRQLSIGTISVSGAGGSTGCVVTGNVLYANGIRLRNLTSSEQSELATYQTEVEQYKTQLRNILSQRRENLRNRLMSQGRNQQQQSNDVSSQGGNDDGSIPKAPEKPSFCTAEDTTQYYFDGCMVQGNKVYVGGQYARDLSSDEISELQTFDTQQTAYQNAVQSQMQSQVQGLFGGSDFLSALFGGDRFNQQQQRQQPSSTTPASTSSTTLPPKPTVPQFCTAIF”, the “soluble on expression in E. coli” value was “not soluble”.
For “MQFGIFTIGDVTVDPTTGKAPTEGERIHAMTQIALKAEEVGLDVFATGEHHNPPFVPSSPTTHLAYIAAKTEKLLLSTSTTLITTNDPVKIAEDYTFLQHLSGGRVDLMMGRGNTGPVYPWFGKDIHQGIPLAIENYHLLRRLWREDVVNWQGKFRTPLQGYTSTPAPLDGVAPFVWHGSIRSTEIAEQAAFYGDGFFHNNIFWNKEHTAQMVNLYRQRFEHYGHGQADQAIVGLGGQVFIGDSEEEAKKTFRPYFDNAPVYGHGPSLEDFSRLTPLTVGTAEQVIERTMEFADWVGDYQRQLFLIDHAGLPLEMVLDQIERLGHDVVPEVRRRMEERRPDHVPSNPPTHQSLKANRNSPHFQINPGQPTE”, the “soluble on expression in E. coli” value was “not soluble”.
With “MTAVVNIAAYKFVSIANPADLREPMLEQAGQRQLKGTVLLAPEGINLFLAGAADAIEGFLRWLRADARFADLQAKYSESARMPFRKLLVKVKREIIRMDHPAIRPEAGRAPAVDAATLRRWLAQGRDDQGRELVMLDTRNAFEVEVGTFRGALDWRIERFTQFPQAVRDNQAALAGKTVVSFCTGGIRCEKAAIYMAEAGIEHVYQLEGGILKYFEETDGAGFDGACFVFDERVALDAALAPQALEHHHHHH” the “soluble on expression in E. coli” value was “soluble”.
In the case of “MSMAMSQSNRELVVDFLSYKLSQKGYSWSQFSDVEENRTEAPEGTESEMETPSAINGNPSWHLADSPAVNGATGHSSSLDAREVIPMAAVKQALREAGDEFELRYRRAFSDLTSQLHITPGTAYQSFEQVVNELFRDGVNWGRIVAFFSFGGALCVESVDKEMQVLVSRIAAWMATYLNDHLEPWIQENGGWDTFVELYGNNAAAESRKGQERLEHHHHHH”, the “soluble on expression in E. coli” value is reported as “soluble”.
In the case of “MLKLYLPCCRNNSTFAIRFSYASIAVDLILKIRQYMKRLHWILLLMILLIPTESISAKKKTEKSDREIWCDVMYRMAAPVLSNMSEGLLKQNMLVELSPTWDGRNQNVTYMECFGRLMAGLAPWLSLPDDETPEGLQRKQLREWALKSYANAVDPASPDYLLWRQENQTLVDAAFLAESFLRSYDALWMPLDSITKQRYIAEFTDLRRVDPSYSNWLLFSATVESFLRKAGAPSDTYRISSSLRKIEEWYVGDGWYSDGPRFAFDYYNSFVIHPMYIEALEIITEAGKREKIGNMPGCNFHEAIRRAQRFGVILERLISPEGTLPVFGRSITYRTGSLQTLALLAWRNWLPEELSNGQVRAAMTAVIQRMFGDGRNFNTAGFLTLGFNGSQPGISDYYTNNGSLYMASLAFLPLGLSADDPFWTDASQSWTSKKAWEGEEFPKDHSYHKELEHHHHHH”, the “soluble on expression in E. coli” value is reported as “not soluble”.
